Reference: article doi:10.1101/431791

Target: AUR1-mRFP (A. thaliana) (UniProt Q9M077)
Experiment: FRET or BRET

Chain of UniProt Q9M077 (Q9M077 whole entry): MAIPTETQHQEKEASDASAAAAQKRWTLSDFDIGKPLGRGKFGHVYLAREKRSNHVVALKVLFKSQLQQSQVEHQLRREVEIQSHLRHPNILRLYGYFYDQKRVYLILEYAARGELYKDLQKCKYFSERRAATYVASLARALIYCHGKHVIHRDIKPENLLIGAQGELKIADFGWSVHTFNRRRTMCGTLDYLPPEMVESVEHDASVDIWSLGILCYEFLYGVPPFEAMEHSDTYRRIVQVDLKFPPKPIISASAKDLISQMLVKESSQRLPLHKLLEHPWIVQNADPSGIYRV

Row | Substance | donor (GFP) fluorescence lifetime with AUR1-RFP
1 | TPXL2-GFP (natural protein) | 1.9 ns
2 | TPXL3-GFP (natural protein) | 1.9 ns
